Experimental data published in article PMC9943675, “Depletion of the RNA-binding protein PURA triggers changes in posttranscriptional gene regulation and loss of P-bodies”.

T1: PURA (Pur-alpha) (Homo sapiens, UniProt Q00577 1-322)
T1 sequence: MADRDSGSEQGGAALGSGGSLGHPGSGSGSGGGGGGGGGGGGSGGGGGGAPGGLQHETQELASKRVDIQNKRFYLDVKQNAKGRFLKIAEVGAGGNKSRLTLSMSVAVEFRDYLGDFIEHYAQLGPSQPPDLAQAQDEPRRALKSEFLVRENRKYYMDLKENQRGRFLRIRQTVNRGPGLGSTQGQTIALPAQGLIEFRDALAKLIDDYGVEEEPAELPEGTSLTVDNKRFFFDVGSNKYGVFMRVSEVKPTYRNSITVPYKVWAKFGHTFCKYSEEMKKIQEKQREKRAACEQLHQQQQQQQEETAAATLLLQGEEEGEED

B1: CLTA (ssRNA)
RNA: GUUGUUUGUGAUUGCAUGUUUCCUUCCUUCAACUGUGUUCUCCCUGGCAUU
B2: CLTC (ssRNA)
RNA: GUCUUGUGUGUGUUUACUAACCCUUCCCUGAGGUUUGUGUAUGUUGGAUAUUGUGGUGUUUUAG

Target: T1, PURA (Pur-alpha)
Assay: EMSA; 100 ug/ml yeast tRNA; 250 mM NaCl, 20 mM HEPES pH 8.0, 3 mM MgCl2, 4% glycerol, 2 mM DTT, 100 ug/ml yeast tRNA, 2.5 nM RNA, 20 min RT; 6% TBE gel
Conditions: protein: recombinant; tags: GST-PURA (pOPIN-J); GST removed with 3C protease; chain copies: 2; label: 5' 32P

Binder	binding result
B1	binds
B2	binds
